Test results reported in the supplement of paper PMC9732359.
± gives the uncertainty stated by the source.

Assay: protein stability index of a GFP-peptide fusion (yeast GPS) (PSI 1-4); higher = more stable; sorted into four equal gates, so the index is relative within each strain
How it was run: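 Mid-log yeast cultures in leucine-free medium, carrying a pooled plasmid library, were sorted into four equal gates by their GFP/Cherry fluorescence ratio. Each plasmid expressed Cherry along with GFP fused upstream of a tiled 17-residue yeast protein peptide. Plasmids recovered from each gate were PCR-amplified and Illumina-sequenced, with reads assigned to strains by barcodes. The protein stability index was obtained by summing each gate's read frequency weighted by its gate number.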

Sequence	protein stability index (doa10∆)	protein stability index (pdr5∆)	protein stability index (san1∆)	protein stability index (ubr1∆)
QEQVYPDFKPWEHTAAE [SRB8]	2.44 ± 0.16	2.94 ± 0.13	3.17 ± 0.076	2.93 ± 0.11
EVDSASDFISKLEYPHT [RPN3]	2.96 ± 0.087	3.09 ± 0.087	2.93 ± 0.075	3.02 ± 0.079
RTVKNILVSVLPGTEKG [CSL4]	1.65 ± 0.27	–	–	–
WSTTGDNGELDLSGFNI [MED2]	3.18 ± 0.09	3.19 ± 0.12	3.34 ± 0.076	2.93 ± 0.097
LNIGKNFAHSDSLSVPK [SIR4]	3.17 ± 0.085	3 ± 0.075	3.12 ± 0.042	3.2 ± 0.05
LAMVIIKEFVDDLKKDH [DSN1]	2.74 ± 0.2	2.92 ± 0.16	2.88 ± 0.12	2.85 ± 0.085
PKTGKVERSEAISKKDL [SEC65]	3.63 ± 0.16	3.46 ± 0.081	3.33 ± 0.14	3.23 ± 0.073
ASGSINRKVLQALEKIG [RPS19A]	1.39 ± 0.071	2 ± 0.12	1.67 ± 0.11	1.99 ± 0.066
RFYELEESLTVLNCLRT [YJR042W/NUP85]	2 ± 0.14	2.25 ± 0.12	1.7 ± 0.29	2.62 ± 0.11
AELVQKYIGEGSRMVRE [RPT6]	2.74 ± 0.088	2.69 ± 0.075	2.65 ± 0.075	2.33 ± 0.11
YGLGLIYAGFGRDTTDY [RPN2]	3.37 ± 0.12	3.03 ± 0.1	2.95 ± 0.084	3.28 ± 0.088
FLLTQSKVSIEQRKEAA [RPN7]	2.27 ± 0.13	2.53 ± 0.15	2.42 ± 0.088	2.48 ± 0.058
ANSQIQAYEEIISSNEN [YIL149C/MLP2]	2.95 ± 0.19	3.46 ± 0.17	3.31 ± 0.22	3.45 ± 0.12
VSEDLLDERGHEKIEDE [RPN4]	3.36 ± 0.1	3.53 ± 0.15	3.71 ± 0.08	3.45 ± 0.11
KRPPEIMSTEAHVNKVT [SIR4]	2.99 ± 0.19	2.96 ± 0.086	2.92 ± 0.1	2.73 ± 0.12
ATDVEARAVQDNGESAF [RPL13A]	3.16 ± 0.11	2.99 ± 0.088	1.56 ± 0.094	2.85 ± 0.094
VRSREDRKNRAPPQRPR [RPS26A]	3.27 ± 0.26	–	2.76 ± 0.12	–
SVEWMKVSPSMCGVIVK [SIN4]	1.74 ± 0.055	1.69 ± 0.051	1.69 ± 0.091	1.54 ± 0.063
ATPQDAQFYLGKRIAYV [RPL33A]	2.29 ± 0.082	2.66 ± 0.07	2.57 ± 0.074	2.7 ± 0.075
KNPLFSYVEPVLVASAK [RPL31A]	2.95 ± 0.075	2.57 ± 0.064	2.49 ± 0.066	2.76 ± 0.05
KNSSTSNTEPIPRSNRH [MED1]	3.1 ± 0.14	3.26 ± 0.12	2.91 ± 0.091	3.18 ± 0.063
HELSRAELEELEEFEFK [SMD2]	3.26 ± 0.072	3.3 ± 0.071	3.42 ± 0.059	3.45 ± 0.055
FVIRREVTKGEKTYTKA [RPS6A]	3.24 ± 0.17	3.13 ± 0.14	–	3.53 ± 0.13
LLKLIEPYVAYGYPSYS [RPL7A]	2.07 ± 0.05	2.22 ± 0.053	2.2 ± 0.056	2.07 ± 0.042
QQLNKQRQDFERVRLRP [SNF6]	2.85 ± 0.062	2.73 ± 0.079	2.75 ± 0.069	2.79 ± 0.045
QTVSNKEDAKATMENIQ [SRP54]	2.98 ± 0.062	3.18 ± 0.066	2.91 ± 0.075	2.99 ± 0.056
TVFLPMVGLVDPDKLKP [RPT5]	2.77 ± 0.061	2.66 ± 0.079	2.47 ± 0.058	2.44 ± 0.062

Sequence	protein stability index (doa10∆)	protein stability index (pdr5∆)	protein stability index (san1∆)	protein stability index (ubr1∆)
ADSAVNRQTLMFTATMT [PRP28]	2.6 ± 0.056	2.72 ± 0.049	2.58 ± 0.046	2.65 ± 0.049
SSLLSRLISSKMPGGFT [FAS2]	2.51 ± 0.069	2.41 ± 0.08	2.17 ± 0.094	2.89 ± 0.064
LLVDIQKYNQIQKQIET [SMC2]	1.92 ± 0.055	1.86 ± 0.05	2.2 ± 0.081	1.65 ± 0.04
TRAGGLGINLVTADTVI [ISW2]	2.19 ± 0.061	2.13 ± 0.054	2.12 ± 0.1	2.89 ± 0.096
LNIDFGSDKQMFTQIYL [YML103C/NUP188]	3.17 ± 0.14	2.99 ± 0.15	2.46 ± 0.12	3.25 ± 0.066
QELAKSIRSRRPYQVNV [PRE1]	2.92 ± 0.14	2.88 ± 0.078	3.2 ± 0.14	3.16 ± 0.078
VTRTQQWSMVAQRLQIS [SWI1]	2.05 ± 0.051	1.89 ± 0.049	2.27 ± 0.07	2.06 ± 0.04
VQYKLLSISVPSDVNID [SNU114]	1.98 ± 0.076	2.5 ± 0.069	2.1 ± 0.074	2.44 ± 0.069
PEQGEEPMKQLNATKIS [YAR002W/NUP60]	3.15 ± 0.12	2.2 ± 0.09	2.5 ± 0.14	2.48 ± 0.11
IALGEDIGKEMSLRHFG [RPN1]	3.2 ± 0.088	3.07 ± 0.11	2.55 ± 0.2	3.34 ± 0.14
GSSGGVIRMVVLTAAGV [PRE3]	2.33 ± 0.086	1.74 ± 0.075	2.64 ± 0.12	1.74 ± 0.049
KVSDPYVPTRNTFNYDV [RPN4]	2.25 ± 0.14	2.39 ± 0.17	1.8 ± 0.28	2.08 ± 0.085
DRNLTEFDSTDTSLCIN [RRI1]	2.98 ± 0.12	3 ± 0.12	2.59 ± 0.13	2.79 ± 0.067
ASSWAKKIAQRERRAAL [RPL14A]	2.53 ± 0.099	3.32 ± 0.14	2.62 ± 0.18	2.22 ± 0.079
GGFEYFLQPLLLVGLIK [NUT1]	1.46 ± 0.056	1.52 ± 0.063	1.37 ± 0.11	1.87 ± 0.12
SVPLMINAKNIAFASNY [RRP43]	1.57 ± 0.06	1.53 ± 0.051	1.27 ± 0.14	1.41 ± 0.052
EDISKATHLPKDNVEHL [RPN9]	2.91 ± 0.084	3.13 ± 0.076	3.12 ± 0.091	3.26 ± 0.061
NENPYNNGVSNLWKNIF [COR1]	–	1.96 ± 0.12	2.01 ± 0.15	1.86 ± 0.07
GNNNNNNSGNDNNNTTN [MED2]	3.06 ± 0.056	3.05 ± 0.058	3.08 ± 0.045	2.93 ± 0.078
MAVGKNKRLSKGKKGQK [RPS1A]	1.5 ± 0.14	1.62 ± 0.086	1.65 ± 0.15	1.45 ± 0.12
LPLTEHKSPNLSLMLES [SRB4]	2.43 ± 0.066	3.18 ± 0.06	2.39 ± 0.11	2.75 ± 0.06
THIPQTNLKNHPAYLFK [YLR018C/POM34]	2.84 ± 0.059	2.83 ± 0.04	2.64 ± 0.054	2.75 ± 0.029
MSGSLSRGNGGKKVLNK [POP1]	1.34 ± 0.15	2.48 ± 0.11	1.32 ± 0.22	2.97 ± 0.11
DKKYKGLTTVWLLSALG [REC8]	2.24 ± 0.054	2.38 ± 0.063	2.04 ± 0.084	2.29 ± 0.039
DNNSSLNVSNTKENGDF [PRP8]	3.17 ± 0.083	2.84 ± 0.084	2.9 ± 0.058	3.39 ± 0.074
SLLEKDIDAVNGAVGKR [ISW2]	2.92 ± 0.09	3.24 ± 0.081	2.9 ± 0.098	3.31 ± 0.064
